Data taken from US20260132182A1 (published 2026).
Starred links: 1 amine or outer side, 2 acyl side, 3 side chain; linkers in the order of their positions; H or OH if unused. Non-standard residues stand in square brackets, D forms with d. Groups on a side chain read outwards from the residue. *: point of attachment. C20 diacid = O=C(O)CCCCCCCCCCCCCCCCCCC(=O)*; C18 diacid = O=C(O)CCCCCCCCCCCCCCCCC(=O)*; C16 diacid = O=C(O)CCCCCCCCCCCCCCC(=O)*; γGlu = O=C(O)[C@H](CCC(=O)[*:2])N[*:1]; C14 diacid = O=C(O)CCCCCCCCCCCCC(=O)*; Desaminohistidyl = O=C(CCc1c[nH]cn1)*; εLys = N[C@@H](CCCCN[*:1])C(=O)[*:2]; Trx = NC[C@H]1CC[C@H](C(=O)O)CC1; AEEA = NCCOCCOCC(=O)O; Aib = CC(C)(N)C(=O)O

T1: human amylin-3 (a) receptor (human, UniProt P30988 25-474; O60896 24-148)
T1 sequence (looked up) 1: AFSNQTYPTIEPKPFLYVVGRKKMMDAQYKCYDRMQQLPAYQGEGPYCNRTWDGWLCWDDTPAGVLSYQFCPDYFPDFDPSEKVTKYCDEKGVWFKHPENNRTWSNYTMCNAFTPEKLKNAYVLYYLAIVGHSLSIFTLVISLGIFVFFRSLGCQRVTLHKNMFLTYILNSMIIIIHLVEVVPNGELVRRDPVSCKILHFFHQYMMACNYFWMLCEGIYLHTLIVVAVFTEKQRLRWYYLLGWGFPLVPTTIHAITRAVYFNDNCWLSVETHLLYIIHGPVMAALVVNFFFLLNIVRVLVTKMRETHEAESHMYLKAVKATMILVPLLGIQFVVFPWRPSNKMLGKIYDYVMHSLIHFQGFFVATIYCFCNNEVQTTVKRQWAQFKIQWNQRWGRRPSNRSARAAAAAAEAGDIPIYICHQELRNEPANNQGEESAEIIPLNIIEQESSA
T1 sequence (looked up) 2: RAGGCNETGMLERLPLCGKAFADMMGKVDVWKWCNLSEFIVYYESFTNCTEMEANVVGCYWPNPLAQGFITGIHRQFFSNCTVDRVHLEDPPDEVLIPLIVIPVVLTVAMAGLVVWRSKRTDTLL


Columns and labels:
human GLP-1 receptor = human GLP-1 receptor (human, UniProt P43220 24-463); test: cell-based or functional assay
[1] = biological target: T1, human amylin-3 (a) receptor; test: cell-based or functional assay

Binder | Human GLP-1R potency [EC50 (pM)] (human GLP-1 receptor) | Human AmyR3 potency [EC50 (pM)] [1]
Compound 0502 (peptide) peptide: H[Aib]EGTFTSDVSSYLEEQAAREFIAWLVRGRK([AEEA-AEEA-γGlu-C20 diacid])GGGGEASELSTAALGRLSAELHELATLPRTETGSGSP-NH2 | 8.4 pM | 9 pM
Compound 0511 (peptide) peptide: H[Aib]EGTFTSDVSRYLEEQAAREFIEWLVRGRK([AEEA-AEEA-γGlu-Trx-C20 diacid])GGGGEASELSTAALGRLSAELHELATLPRTETGSGSP-NH2 | 8.8 pM | 8.4 pM
Compound 0475 (peptide) peptide: HAEGTFTSDK([AEEA-AEEA-γGlu-C16 diacid])SSYLEEK([AEEA-AEEA-γGlu-C16 diacid])AAREFIEWLVRGRGEASELSTAALGRLSAELHELATLPRTETGSGSP-NH2 | 70.4 pM | 66.8 pM
Compound 0440 (peptide) peptide: H[Aib]EGTFTSDK([AEEA-AEEA-γGlu-Trx-C20 diacid])SSYLEEQAAREFIEWLVRGRGEASELSTAALGRLSAELHELATLPRTETGSGSP-NH2 | 5.7 pM | 10.4 pM
Compound 0509 (peptide) peptide: H[Aib]EGTFTSDVSSYLEEQAARK([AEEA-AEEA-γGlu-C16 diacid])FIAWLVRGRGGGGGEASELSTAALGRLSAELHK([AEEA-AEEA-γGlu-C16 diacid])LATLPRTETGSGSP-NH2 | 7.1 pM | 29.9 pM
Compound 0503 (peptide) peptide: H[Aib]EGTFTSDVSSYLEEQAAREFIEWLVRGRK([AEEA-AEEA-γGlu-Trx-C20 diacid])GGGGEASELSTAALGRLSAELHELATLPRTETGSGSP-NH2 | 6.5 pM | 7.7 pM
Compound 0516 (not fully specified (residue 21)) peptide: H[Aib]EGTFTSDVSK([AEEA-AEEA-γGlu-C16 diacid])YLEEQAARKFIAWLVRGRGGGGGEASELSTAALGRLSAELHELATLPRTETGSGSP-NH2 | 3.3 pM | 8.9 pM
Compound 0051 (peptide) peptide: [Desaminohistidyl]AEGTFTSDVSSYLEEQAAREFIAWLVRGRK([AEEA-AEEA-γGlu-C18 diacid])EASELSTAALGRLSAELHELATLPRTETGSGSP-NH2 | 14.3 pM | 19.5 pM
Compound 0504 (peptide) peptide: H[Aib]EGTFTSDVSSYLEEQAAREFIAWLVRGRPK([AEEA-AEEA-γGlu-Trx-C20 diacid])GGGGEASELSTAALGRLSAELHELATLPRTETGSGSP-NH2 | 8.3 pM | 6 pM
Compound 0474 (peptide) peptide: HAEGTFTSDVSSYLEEK([AEEA-AEEA-γGlu-C20 diacid])AAREFIEWLVRGRGEASELSTAALGRLSAELHELATLPRTETGSGSP-NH2 | 2.9 pM | 21.8 pM
Compound 0482 (peptide) peptide: HAEGTFTSDVSK([AEEA-AEEA-γGlu-C16 diacid])YLEEQAVREFIAK([AEEA-AEEA-γGlu-C16 diacid])LVRGRGGGEASELSTAALGRLSAELHELATLPRTETGSGSP-NH2 | 36.5 pM | 31.8 pM
Compound 0484 (peptide) peptide: H[Aib]EGTFTSDVSK([AEEA-AEEA-γGlu-C14 diacid])YLEEQAVREFIAK([AEEA-AEEA-γGlu-C14 diacid])LVRGRGGGEASELSTAALGRLSAELHELATLPRTETGSGSP-NH2 | 72.8 pM | 32.5 pM
Compound 0472 (peptide) peptide: HAEGTFTSDVSSYLEEK([AEEA-AEEA-γGlu-C18 diacid])AAREFIEWLVRGRGEASELSTAALGRLSAELHELATLPRTETGSGSP-NH2 | 2.8 pM | 24 pM
Compound 0518 (peptide) peptide: H[Aib]EGTFTSDVSK([AEEA-AEEA-γGlu-Trx-C20 diacid])YLEEQAAREFIAWLVRGRGGGGGEASELSTAALGRLSAELHELATLPRTETGSGSP-NH2 | 3.4 pM | 4.4 pM
Compound 0483 (peptide) peptide: H[Aib]EGTFTSDVSK([AEEA-AEEA-γGlu-C16 diacid])YLEEQAVREFIAK([AEEA-AEEA-γGlu-C16 diacid])LVRGRGGGEASELSTAALGRLSAELHELATLPRTETGSGSP-NH2 | 33.7 pM | 36.8 pM
Compound 0512 (peptide) peptide: H[Aib]EGTFTSDVSSYLEEQAAREFIAWLVRGRK([AEEA-AEEA-γGlu-Trx-C20 diacid])GGEASELSTAALGRLSAELHELATLPRTETGSGSP-NH2 | 7.6 pM | 10.8 pM
Compound 0506 (not fully specified (residue 31)) peptide: H[Aib]EGTFTSDVSSYLEEQAAREFIAWLVRGRKGGGGEASELSTAALGRLSAELHELATLPRTETGSGSP-NH2 | 5.8 pM | 9.8 pM
Compound 0438 (not fully specified (residue 31)) peptide: H[Aib]EGTFTSDVSSYLEEQAAREFIEWLVRGRKEASELSTAALGRLSAELHELATLPRTETGSGSP-NH2 | 11.8 pM | 27.5 pM
Compound 0473 (peptide) peptide: HWEGTFTSDVSSYLEEK([AEEA-AEEA-γGlu-C20 diacid])AAREFIEWLVRGRGEASELSTAALGRLSAELHELATLPRTETGSGSP-NH2 | 3.1 pM | 16.2 pM
Compound 0052 (peptide) peptide: H[Aib]EGTFTSDVSSYLEGQAAK([AEEA-AEEA-γGlu-C18 diacid])EFIAWLVRGRGGGGGGGGGEASELSTAALGRLSAELHELATLPRTETGSGSP-NH2 | 17 pM | 19.4 pM
Compound 0439 (not fully specified (residue 21)) peptide: H[Aib]EGTFTSDVSSYLEEQAARKFIEWLVRGRGEASELSTAALGRLSAELHELATLPRTETGSGSP-NH2 | 8.3 pM | 10.7 pM
Compound 0437 (peptide) peptide: HWEGTFTSDVSSYLEEQAARK([εLys-AEEA-AEEA-γGlu-Trx-C20 diacid])FIEWLVRGRGEASELSTAALGRLSAELHELATLPRTETGSGSP-NH2 | 12 pM | 11.8 pM
